From PMC9867944 (2023)

Target: human PD-1 protein (Acro biosystems) (human, UniProt Q15116 25-170)
Assay: SPR

Chain of human PD-1 protein (Acro biosystems) (Q15116 25-170): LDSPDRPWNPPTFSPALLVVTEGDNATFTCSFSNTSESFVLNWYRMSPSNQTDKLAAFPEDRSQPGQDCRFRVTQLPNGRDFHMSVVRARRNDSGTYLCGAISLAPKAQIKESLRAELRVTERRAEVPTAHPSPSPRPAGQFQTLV

B1: anti-PD-1 Nb C12-Fc (Fc fusion)
chain: QVQLQELGETRCRHGGSLRLSCKVSGYTQRSYCLGWLRQAPGNEREAVAVLQHSGNFRHYADSVQGRFVISQDYTDNTVYLAMNNLKSEDAAMYYCAAVGLRVSQFNYWGQGTQVTVSS
  koff: 0.00178 s⁻¹
